Earlier results, collected in paper PMC3273586 (International Journal of Pharmaceutics, 2011).

Conditions: solution stored for 20 h at room temperature; ref Dijkhuizen-Radersma et al., 2002

In the case of calcitonin, the “aggregation of solution on storage” value is listed as “early onset of aggregation”.
